Values belong to the substance of their own block, whether it stands above or below them. No end group written: not given here. *: point of attachment. maleimido‑mono‑amide‑DOTA = O=C(O)CN1CCN(CC(=O)O)CCN(CC(=O)NCCN2C(=O)CC(*)C2=O)CCN(CC(=O)O)CC1; NAM = N-norbiotinyl-β-maleimidopropionylamide, biotin derivative conjugated to Cys thiol
Tests used:
[1] = target: T1, VCAM-1 expressed on HUVEC (Homo sapiens, UniProt P19320); assay: In vitro test of 68Ga-MacroP on HUVEC (LigandTracer radioactive uptake); format: cell-based; set-up: endogenous in cells; host or cells: primary HUVEC stimulated with 10 ng/mL TNF-alpha for 4 h; details: HUVEC activated with 10 ng/mL TNF-α for 4 h vs unstimulated HUVEC; 5 MBq 68Ga-MacroP in 3 mL saline; LigandTracer White
T1 sequence (P19320 25-739): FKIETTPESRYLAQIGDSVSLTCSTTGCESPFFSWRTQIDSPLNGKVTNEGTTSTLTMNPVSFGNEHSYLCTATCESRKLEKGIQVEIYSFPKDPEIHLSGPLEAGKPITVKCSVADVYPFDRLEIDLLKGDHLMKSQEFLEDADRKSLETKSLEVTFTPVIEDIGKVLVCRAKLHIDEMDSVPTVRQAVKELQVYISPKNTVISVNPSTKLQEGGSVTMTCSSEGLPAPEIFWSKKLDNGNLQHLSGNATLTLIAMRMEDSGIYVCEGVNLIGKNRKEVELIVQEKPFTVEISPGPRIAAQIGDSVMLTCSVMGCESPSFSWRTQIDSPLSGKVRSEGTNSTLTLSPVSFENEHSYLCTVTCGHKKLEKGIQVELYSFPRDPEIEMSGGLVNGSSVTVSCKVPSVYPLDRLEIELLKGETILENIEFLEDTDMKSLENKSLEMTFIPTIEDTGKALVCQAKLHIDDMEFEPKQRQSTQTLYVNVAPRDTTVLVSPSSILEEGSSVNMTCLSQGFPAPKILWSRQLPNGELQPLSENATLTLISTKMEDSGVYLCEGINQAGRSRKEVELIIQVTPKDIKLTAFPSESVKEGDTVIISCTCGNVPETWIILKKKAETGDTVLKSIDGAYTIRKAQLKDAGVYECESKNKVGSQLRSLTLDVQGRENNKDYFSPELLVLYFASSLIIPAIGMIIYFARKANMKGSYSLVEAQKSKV
Excerpt: (§1) Human Umbilical Vein Endothelial Cells (HUVEC) were obtained from human umbilical cords collected from full-term women immediately after cesarean section at the Gynecology and Obstetrics Department of International Evangelical Hospital in Genoa (Italy), after patients’ informed consent and the approval (register number 2/2010-19, February, 2010) by the Institutional Ethical Committee. Each cord vein was individually processed for obtaining endothelial cells through mechanical dissociation of the tissue and collagenase digestion. Cells were maintained in culture medium EndoGRO-LS Complete Culture Media Kit seeded on attachment factor-coated plates. For labeling experiments, 8 × 10^5 cells were plated on Petri dishes in EndoGRO Basal Medium (SCME-BM) and allowed to attach overnight prior stimulation with 10 ng/mL of TNF-alpha (TNF-α) for 4 h. Cells without TNF-α treatment were used as control (Figures S19 and S20).
The binding assay of ^68Ga-MacroP with VCAM-1 expressed on HUVEC was monitored using LigandTracer® White (Ridgeview Instruments AB, Uppsala, Sweden) according to our previously validated procedure. Briefly, the tool consists of a beta-emission detector and a rotating platform harboring a standard Petri dish. […] The binding of radioactivity to cell-containing areas and reference areas was recorded. […]

[2] = target: avidin (Gallus gallus, UniProt P02701); assay: NAMP-avidin binding (ultrafiltration, RP-HPLC, capillary electrophoresis); details: approx. 0.17 mM NAMP with avidin 2.5 μg/μL, 37 °C, 2 h; 30 kD cut-off ultrafiltration; RP-HPLC of ultrafiltrate, capillary electrophoresis of retentate
Procedure: Avidin was dissolved in ultrapure water (2.5 μg/μL). This solution (100 μL) was mixed with a NAMP solution (approx. 0.17 mM) and heated at 37 °C under 400 rpm orbital shaking for 2 h. The mixture was placed in an ultrafiltration system with a regenerated cellulose membrane (30 kD cut-off), and washed with 250 μL of ultrapure water at 1400 g for 20 min at 15 °C. By inverted spinning at 1000 g for 3 min, the retentate was recovered and analyzed by capillary electrophoresis (Agilent Technologies 7100 Capillary Electrophoresis, Santa Clara, CA, USA). Separations were performed in a bare fused-silica capillary 50 μm (i.d.) × 64.5 cm (L) × 50 cm (L), activated with 1 M aqueous NaOH, 0.1 M aqueous NaOH and washed with ultrapure water. The conditioning and the run were carried out with 50 mM sodium phosphate buffer (pH 2.5), used also for 120 s preconditioning before injection. The gradient voltage was from 0 to 30 kV in 0.2 min.

[3] = target: T1, VCAM-1 expressed on HUVEC; assay: In vitro test of NAMP-avidin-68Ga-BisDOTA on HUVEC (three-step pretargeting, LigandTracer); format: cell-based; set-up: endogenous in cells; host or cells: primary HUVEC stimulated with TNF-alpha
Excerpt: as §1, with “Cells without TNF-α treatment were used as control (Figures S19 and S20).” left out
After removing the culture medium containing TNF-α, stimulated HUVEC were incubated at 37 °C with 4 nmol of NAMP for 20 min and afterwards with 3.5 nmol of NeutrAvidin™ for 10 min. After washing and replacing the culture medium with 3 mL of the saline solution containing 5MBq of ^68Ga-BisDOTA (specific activity 37.0 MBq/nmol), the binding assay of ^68Ga-BisDOTA with the NAMP-avidin complex, bound to the VCAM-1 expressed on HUVEC, was monitored using the same procedure described in Section 2.3.5.

[4] = deglycosylated form of avidin; cited from earlier work
Procedure: After radiolabeling with ^68Ga, both MacroP and NAMP were tested on human endothelial cells. Quantitative PCR and Fluorescence-Activated Cell Sorting (FACS) analysis were performed prior to the experiments, to assess the expression of VCAM-1 on HUVEC. To avoid excessive stress for the cells, they were activated with TNF-α for 4 h only. In the three-step pretargeting test, a commercially available deglycosylated form of avidin (NeutrAvidin™) was employed because it is characterized by reduced non-specific binding, low isoelectric point (~6.3) and low production cost with respect to ...

Chain of avidin (P02701 25-152, species assumed): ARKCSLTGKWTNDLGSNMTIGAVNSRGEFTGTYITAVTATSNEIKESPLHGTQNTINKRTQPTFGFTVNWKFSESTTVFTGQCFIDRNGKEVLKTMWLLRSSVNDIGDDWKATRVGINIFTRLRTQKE

radiosignal uptake of activated cells compared to control cells [1]: 4 fold
Substance: MacroP: reaction product of maleimido-mono-amide-DOTA with the cysteine thiol of the VCAM-1-binding peptide VHPKQHRGGSKGC (VHPKQHRGGSKGC(maleimido‑mono‑amide‑DOTA))

avidin binding: unbound NAMP in the ultrafiltrate [2]: no unbound NAMP could be detected | radioactive uptake of activated cells compared to the controls ([3]; HUVEC activated with 10 ng/mL TNF-α for 4 h vs unstimulated, 4 nmol NAMP 20 min at 37 °C, 3.5 nmol NeutrAvidin 10 min, then 5 MBq 68Ga-BisDOTA in 3 mL saline): 12 fold
Substance: NAMP: biotin derivative: NAM (N-norbiotinyl-β-maleimidopropionylamide) conjugated to the cysteine thiol of VHPKQHRGGSKGC, for three-step pretargeting (VHPKQHRGGSKGC(NAM))
uptake of radioactivity, activated cells versus control cells (in words) ([3]; TNF-α activated HUVEC vs control, NAMP, then NeutrAvidin and 68Ga-BisDOTA, p < 0.05): evidently higher uptake of radioactivity compared to the control cells

Substance: NeutrAvidin™: commercially available deglycosylated form of avidin
isoelectric point [4]: ~ 6.3

— publication PMC8309178, “Two Novel PET Radiopharmaceuticals for Endothelial Vascular Cell Adhesion Molecule-1 (VCAM-1) Targeting” (Pharmaceutics, 2021)
